Tests used:
[1] = target: IgG4 contained in cell-free eukaryotic culture supernatant (Experiment 1, test 1); experiment: affinity precipitation; 0.13 µmol Z-dimer with 0.065 µmol IgG4 in culture supernatant, 2 h; antibody left in supernatant measured by SEC UV signal and protein A chromatography
[2] = target: IgG1 contained in cell-free eukaryotic culture supernatant (Experiment 1, test 2); experiment: affinity precipitation; 16.25 nmol Z-dimer with 16.25 nmol IgG1 in culture supernatant, 2 h; antibody left in supernatant measured by SEC UV signal and protein A chromatography
[3] = target: antibody in cell-free culture supernatant (Experiment 3); experiment: affinity precipitation from cell-free culture supernatant; antibody to Z-dimer 1:2, 1 h; precipitate collected on a 0.22 µm filter

A percent of antibody precipitated [1] of 99%, a percent of antibody precipitated [2] of 76% and a total yield of the antibody after the precipitation [3] of 98% were found for “Z-dimer (dimerised protein Z; two Z-domain Cys tag monomers linked via a disulphide bridge) (designed binder)” in this work.
